B1: Guanyl-specific ribonuclease T1, P00651 (parent)
chain: MMYSKLLTLTTLLLPTALALPSLVERACDYTCGSNCYSSSDVSTAQAAGYQLHEDGETVGSNSYPHKYNNYEGFDFSVSSPYYEWPILSSGDVYSGGSPGADRVVFNENNQLAGVITHTGASGNNFVECT

The first data set covers variants of B1. As to conditions: Aspergillus oryzae (strain ATCC 42149 / RIB 40); pH 7; 25 °C; Thermal; DSC; MOPS 30 mM; reversible: yes(0.98); structure 1RN1; whole UniProt chain shown.
On to V104T, for which the “ddG of mutation (higher = less stable)” value worked out at 3.1 kcal/mol and the “heat capacity change of unfolding” value is 1.29 kcal/mol/K.

For V42A, the “ddG of mutation (higher = less stable)” value came to 2.19 kcal/mol and the “heat capacity change of unfolding” value was 1.29 kcal/mol/K.

Still in this data set, the particulars now being: Aspergillus oryzae (strain ATCC 42149 / RIB 40); pH 7; 25 °C; Urea; CD; MOPS 30 mM; reversible: yes(0.98); structure 1RN1; whole UniProt chain shown.
Regarding V104T, the “ddG of mutation (higher = less stable)” value was 4.08 kcal/mol.

The data set is the same for the next values; noted with them: Aspergillus oryzae (strain ATCC 42149 / RIB 40); pH 7; Thermal; CD; MOPS 30 mM; reversible: yes(0.98); structure 1RN1; whole UniProt chain shown.
Broadly, the Tm is the temperature at which the thermal transition is half complete. Regarding V104T, the Tm was 41.4 °C and the “change of melting temperature, mutant - wild type (higher = more stable)” value (from here on “change of melting temperature, mutant”) was -9.8 °C.

Consider V42A, for which the melting temperature (Tm) was 43 °C and the “change of melting temperature, mutant” value was -8.2 °C.

The same data set, now with this note: Aspergillus oryzae (strain ATCC 42149 / RIB 40); pH 7; Thermal; DSC; MOPS 30 mM; reversible: yes(0.98); structure 1RN1; whole UniProt chain shown.
V104T: the Tm is 40.2 °C and the “change of melting temperature, mutant” value was -11.3 °C.

V42A: the Tm came out at 44.5 °C and the “change of melting temperature, mutant” value was -7 °C.

The same data set, now with this note: Aspergillus oryzae (strain ATCC 42149 / RIB 40); pH 7; Thermal; CD; MOPS 30 mM; structure 1RN1; whole UniProt chain shown.
As to V104S, the Tm was 34.6 °C and the “change of melting temperature, mutant” value was -16.6 °C.

Take V104A: the Tm is 43.3 °C and the “change of melting temperature, mutant” value is -7.9 °C.

On to V115S, for which the Tm is 29.6 °C and the “change of melting temperature, mutant” value is -21.6 °C.

For the variant V115T, the Tm came out at 38 °C and the “change of melting temperature, mutant” value is -13.2 °C.

For the variant V115C, the Tm came to 46.3 °C and the “change of melting temperature, mutant” value is -4.9 °C.

The data set is the same for the next values; noted with them: Aspergillus oryzae (strain ATCC 42149 / RIB 40); pH 7; 25 °C; Urea; CD; MOPS 30 mM; structure 1RN1; whole UniProt chain shown.
Consider V104A, for which the “ddG of mutation (higher = less stable)” value was determined as 4.08 kcal/mol.

Turning to V104C, the “ddG of mutation (higher = less stable)” value was 3.67 kcal/mol.

Regarding V115S, the “ddG of mutation (higher = less stable)” value was 4.87 kcal/mol.

With V115T, the “ddG of mutation (higher = less stable)” value worked out at 3.07 kcal/mol.

With V115C, the “ddG of mutation (higher = less stable)” value worked out at 3.54 kcal/mol.

The same data set, now with this note: Aspergillus oryzae (strain ATCC 42149 / RIB 40); pH 7; 25 °C; Thermal; DSC; MOPS 30 mM; reversible: yes(0.18); structure 1RN1; whole UniProt chain shown.
With V42C, the “ddG of mutation (higher = less stable)” value was determined as 4.68 kcal/mol and the “heat capacity change of unfolding” value stood at 1.29 kcal/mol/K.

Still in this data set, the particulars now being: Aspergillus oryzae (strain ATCC 42149 / RIB 40); pH 7; 25 °C; Urea; CD; MOPS 30 mM; reversible: yes(0.18); structure 1RN1; whole UniProt chain shown.
With V42C, the “ddG of mutation (higher = less stable)” value was determined as 5.3 kcal/mol.

Still in this data set, the particulars now being: Aspergillus oryzae (strain ATCC 42149 / RIB 40); pH 7; Thermal; CD; MOPS 30 mM; reversible: yes(0.18); structure 1RN1; whole UniProt chain shown.
For the variant V42C, the Tm came to 41.6 °C and the “change of melting temperature, mutant” value is -9.6 °C.

The same data set, now with this note: Aspergillus oryzae (strain ATCC 42149 / RIB 40); pH 7; Thermal; DSC; MOPS 30 mM; reversible: yes(0.18); structure 1RN1; whole UniProt chain shown.
For the variant V42C, the Tm was 42.6 °C and the “change of melting temperature, mutant” value is -8.9 °C.

The data set is the same for the next values; noted with them: Aspergillus oryzae (strain ATCC 42149 / RIB 40); pH 7; 25 °C; Thermal; DSC; MOPS 30 mM; reversible: yes(1.04); structure 1RN1; whole UniProt chain shown.
Take V42T: the “ddG of mutation (higher = less stable)” value was 4.1 kcal/mol and the “heat capacity change of unfolding” value was 1.29 kcal/mol/K.

The data set is the same for the next values; noted with them: Aspergillus oryzae (strain ATCC 42149 / RIB 40); pH 7; 25 °C; Urea; CD; MOPS 30 mM; reversible: yes(1.04); structure 1RN1; whole UniProt chain shown.
As for V42T, the “ddG of mutation (higher = less stable)” value stood at 3.2 kcal/mol.

Staying with this data set, now noted: Aspergillus oryzae (strain ATCC 42149 / RIB 40); pH 7; Thermal; DSC; MOPS 30 mM; reversible: yes(1.04); structure 1RN1; whole UniProt chain shown.
Take V42T: the Tm was 42.1 °C and the “change of melting temperature, mutant” value is -9.4 °C.

Still in this data set, the particulars now being: Aspergillus oryzae (strain ATCC 42149 / RIB 40); pH 7; 25 °C; Thermal; DSC; MOPS 30 mM; reversible: yes(1.03); structure 1RN1; whole UniProt chain shown.
V42S: the “ddG of mutation (higher = less stable)” value stood at 4.71 kcal/mol and the “heat capacity change of unfolding” value was determined as 1.29 kcal/mol/K.

Staying with this data set, now noted: Aspergillus oryzae (strain ATCC 42149 / RIB 40); pH 7; 25 °C; Urea; CD; MOPS 30 mM; reversible: yes(1.03); structure 1RN1; whole UniProt chain shown.
As for V42S, the “ddG of mutation (higher = less stable)” value was 4.66 kcal/mol.

Still in this data set, the particulars now being: Aspergillus oryzae (strain ATCC 42149 / RIB 40); pH 7; Thermal; CD; MOPS 30 mM; reversible: yes(1.03); structure 1RN1; whole UniProt chain shown.
For V42S, the Tm is 35.6 °C and the “change of melting temperature, mutant” value is -15.6 °C.

The data set is the same for the next values; noted with them: Aspergillus oryzae (strain ATCC 42149 / RIB 40); pH 7; Thermal; DSC; MOPS 30 mM; reversible: yes(1.03); structure 1RN1; whole UniProt chain shown.
As to V42S, the Tm came out at 36.9 °C and the “change of melting temperature, mutant” value is -14.6 °C.

The values are drawn from FireProtDB (doi:10.1021/bi010565n).
